Assay results: PMC7379967 (The Febs Journal, 2018)
Each block holds one molecule with its values, some of them ahead of it.

What was measured:
[1] = target: T1, cdMMP‐3 (Homo sapiens, UniProt P08254); test: Gelatin‐Sepharose bound serum proMMP‐9 activation by cdMMP‐3, zymography; format: biochemical; conditions: 5 μl serum, 0-14.2 nM cdMMP‐3, 3 h, 37 °C, CDG patients n = 5, healthy controls n = 7, Fig. 8
[2] = target: T1, cdMMP‐3; test: Stepwise activation of proMMP‐9 glycoforms by cdMMP‐3, gelatin zymography; format: biochemical; conditions: with galectin‐3 (1/10), Fig. 9B

T1 sequence (P08254 100-272 limits assumed): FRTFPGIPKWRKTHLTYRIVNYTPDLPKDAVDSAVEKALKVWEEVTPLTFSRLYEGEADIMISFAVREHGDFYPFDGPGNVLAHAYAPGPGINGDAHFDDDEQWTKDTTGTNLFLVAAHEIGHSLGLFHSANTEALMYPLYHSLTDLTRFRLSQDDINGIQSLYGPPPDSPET

activation of serum proMMP‐9 by MMP‐3 [1]: significantly faster activation
B1: proMMP‐9 from CDG patients: serum proMMP‐9 of PMM2‐CDG patients, defective N‐glycosylation (protein, UniProt P14780 20-707, looked up)
pro-form: APRQRQSTLVLFPGDLRTNLTDRQLAEEYLYRYGYTRVAEMRGESKSLGPALLLLQKQLSLPETGELDSATLKAMRTPRCGVPDLGRFQTFEGDLKWHHHNITYWIQNYSEDLPRAVIDDAFARAFALWSAVTPLTFTRVYSRDADIVIQFGVAEHGDGYPFDGKDGLLAHAFPPGPGIQGDAHFDDDELWSLGKGVVVPTRFGNADGAACHFPFIFEGRSYSACTTDGRSDGLPWCSTTANYDTDDRFGFCPSERLYTQDGNADGKPCQFPFIFQGQSYSACTTDGRSDGYRWCATTANYDRDKLFGFCPTRADSTVMGGNSAGELCVFPFTFLGKEYSTCTSEGRGDGRLWCATTSNFDSDKKWGFCPDQGYSLFLVAAHEFGHALGLDHSSVPEALMYPMYRFTEGPPLHKDDVNGIRHLYGPRPEPEPRPPTTTTPQPTAPPTVCPTGPPTVHPSERPTAGPTGPPSAGPTGPPTAGPSTATTVPLSPVDDACNVNIFDAIAEIGNQLYLFKDGKYWRFSEGRGSRPQGPFLIADKWPALPRKLDSVFEERLSKKLFFFSGRQVWVYTGASVLGPRRLDKLGLGADVAQVTGALRSGRGKMLLFSGRRLWRFDVKAQMVDPRSASEVDRMFPGVPLDTHDVFQYREKAYFCQDRFYWRVSSRSELNQVDQVGYVTYDILQCPED
modifications: pro-form

B2: recombinant proMMP‐9: recombinant full‐length human proMMP‐9 expressed in Sf‐9 insect cells (protein, UniProt P14780 20-707, looked up)
pro-form: B1 pro-form
modifications: pro-form
conversion into active form on overnight incubation with cdMMP‐3 and galectin‐3 [2]: fully converted into its active form
